B1: HDV Ribozyme (parent)
chain: GGCCGGCAUGGUCCCAGCCUCCUCGCUGGCGCCGGCUGGGCAACAUUCCGAGGGGACCGUCCCCUCGGUAAUGGCGAAUGGGACCCA

Variants of: B1
Test: self-cleavage, relative activity (ratio to wild type); higher = more cleavage; co-transcriptional

In order of falling self-cleavage:
1. GGCCGGCAUGGUCUCAGCCUCCUCGCUGGCGCCGGCUGGGCAACAUUCCGAGGGGACCGACCCCUCGGUAAUGGCGAAUGGGACCCA  1.23
2. GGCCGGCAUGGUCCCAGCCUCCUCGCUGGCGCCGGCUGGGCAACAUUCCUAGGGAACCGUCCCCUCGGUAAUGGCGAAUGGGACCCA  1.11
3. GGCCGGCAUGGUCCCAGCCUCCUCGCGGGCGCCGGCUGGGCAACAUUCCGAGGGGACCGUCCCCUCAGUAAUGGCGAAUGGGACCCA  1.1
4. GGCCGGCAUGGUCCCAGCCUCCUCGCUGGCGCCGGCUGGGCAACAUUCCGAGAGGACCGUCCCCUCGGGAAUGGCGAAUGGGACCCA  1.04
5. GGCCGGCAAGGUCCCAGCCUCCUCGCUGGCGCCGGCUGGGCAACAUUCCGAGGGGACCGUCCCUUCGGUAAUGGCGAAUGGGACCCA  1.04
6. GGCCGGCAUGGUCCCAGCCUCCUCGUUGGCGCCGGCUGGGCAACAUUUCGAGGGGACCGUCCCCUCGGUAAUGGCGAAUGGGACCCA  1.01
7. GGCCGGCAUGGUCCCUGCCUCCUCGCUGGCGCCGGCUGGGCAACAUUCCGAGGGGACCGUCCCCUCCGUAAUGGCGAAUGGGACCCA  0.978
8. GGCCGGCAUGGUCCCAGCCUCCUCGCUGGCGCCGGCUGGGCAACAUUCCGAGGGGACCGUCCCCUGGGUAAUGGCGAAUGGGACGCA  0.969
9. GGCCGGCAUGGUCCCAGCCUCCUCGCUGGCGCCGGCUGGGCAACAUUCCGAGGGGACCGUCCCCUCGUUAAUGGCAAAUGGGACCCA  0.953
10. GGCCGGCAUGGUCCCAGCCUCCCCGCUGGCGCCGGCUGGGCAACAUUCCGAGGGGACCGUCCCCGCGGUAAUGGCGAAUGGGACCCA  0.95
11. GGCCGGCAUCGUCCCAGCCUCCUCGCUGGCGCCGGCUGGGCAACAUUCCGAGGGGACCGUCCCCUCGGUAGUGGCGAAUGGGACCCA  0.906
12. GGCCGGCAUGGUCCCAGCCUCCACGCUGGCGCCGGCUGGGCAACAUUCCGAGGGGACCGUCCCCUCGAUAAUGGCGAAUGGGACCCA  0.906
13. GGCCGGCAUGGUCCCAGCCUCCUCGCUGGCGCCGGCUGGGCAACGUUCCGAGGGGACUGUCCCCUCGGUAAUGGCGAAUGGGACCCA  0.906
14. GGCCGGCAUGGUCCCAGCCUCCUCGCUGGCGCCGGCUGGGGUACAUUCCGAGGGGACCGUCCCCUCGGUAAUGGCGAAUGGGACCCA  0.886
15. GGCCGGCAUGGUCCCCGCCUCCUCGCUGGCGCCGGCUGGGCAACAUUCCGAGGCGACCGUCCCCUCGGUAAUGGCGAAUGGGACCCA  0.87
16. GGCCGGCAUGGUCCCAGCCUCCUCGCUGGCGCCGGCUGGGCAACAUUACGAGGGGACCGUCCCCUCGGUAAUGGCGAAUGGGACGCA  0.867
17. GGCCGGCAUGGUACCAGCCUCCUCGCUGGCGCCGGCUGGGCAACAUUCCGAGGGGACCGUCCCCUCGGUAAUGGCGAAUGGGAACCA  0.831
18. GGCCGGCAUGGUCCCAGCCUCCUCGGUGGCGCCGGCUGGGCAACAUUCCGAGGGGACCGUCCCCUCGGUAAUGGCGAAUGGGACCUA  0.831
19. GGCCGGCAUGGUCCCAGCCUCCUAGCUGGCGCCGGCUGGGCAACAUUCCGAGGGCACCGUCCCCUCGGUAAUGGCGAAUGGGACCCA  0.818
20. GGCCGGCCUGGUCCCAGCCUCCUCGCUGGCGCCGGCUGGGCAACAUUCCGAGGGGACCGUCCCCUCGGUAAUGGCUAAUGGGACCCA  0.785
21. GGCCGGCAUGGUCCCAGCCUCCUCGCUGGCGCCGGUUGGGCAACAUUCCGAGGGGACCGUCCCCUCGGUAAUGGCGAAUGGGACCCC  0.778
22. GGCCGGCGUGGUCCCAGCCUCCUAGCUGGCGCCGGCUGGGCAACAUUCCGAGGGGACCGUCCCCUCGGUAAUGGCGAAUGGGACCCA  0.762
23. GGCCGGCAUGGUCCCAGCCUCCUCGCUGGCGCCGGCUGGGCAACAUUCGGAGGGGACCGUCCCCUCGGUAAUGGCGAAUGGGACCCC  0.672
24. GGCCGGCAUGGUCCCAACCUCCUCGCUGGCGCCGGCUGGGCAACAUUCCGAGGGGACCGUCCCCUGGGUAAUGGCGAAUGGGACCCA  0.652
25. GGCCGGCAUGGUCCCAGCCUCCUUGCUGGCGCCGGCUGGGCAACAUUCCGAGGGGACCGUCCCCCCGGUAAUGGCGAAUGGGACCCA  0.597
26. GGACGGCAUGGUCCCAGCCUCCUCGCUGGCGCCGGCUGGGCAACAUUCCGAGGGGACCGUCCUCUCGGUAAUGGCGAAUGGGACCCA  0.559
27. GGCCGGCUUGGUCCCAGCCUCCUCGCUGGCGCCGGCUGGGCAACAUUCCGAGGGGACCGUCCCAUCGGUAAUGGCGAAUGGGACCCA  0.538
28. GGCCGGCAUGGUCCCAGCCUCCUCGCUGGCGCCGGCUGGGCAUCAUUCCGCGGGGACCGUCCCCUCGGUAAUGGCGAAUGGGACCCA  0.525
29. GGCCGGCAUGAUCCCAGCCUCCUCGCUGGCGCCGGCUGGGCAACAUUCCGAGGGGACCGUCCCCUCGGUAAUGGCGAAUGGGACCCG  0.502
30. GGCCGGCAUGGUCCCAGCCUCCUCGGUGGUGCCGGCUGGGCAACAUUCCGAGGGGACCGUCCCCUCGGUAAUGGCGAAUGGGACCCA  0.415
31. GGCCGGCAUGGUCCCAGUCUCCUCGCUGGCGCCGGCUGGGCAACAUUCCGAGGGGACCGUCCCCUAGGUAAUGGCGAAUGGGACCCA  0.407
32. GGCCGGCAUGCUCCCAGCCUCCUCGCUGGCGCCGGCUGGGCAACAUUCAGAGGGGACCGUCCCCUCGGUAAUGGCGAAUGGGACCCA  0.388
33. GGCCGGCAUGGUCCCAGCCUCCUCGCUGGCGCCGGCUGGGCUACAUUCCGAGGCGACCGUCCCCUCGGUAAUGGCGAAUGGGACCCA  0.381
34. GGCCGGCAUGGUCCCAGCCUCCUCGCUGGCGCCGGCUGGGCAACAUUCCGAGGGGACCGUCCCCUGGGUAAUGGCGAAUGGAACCCA  0.369
35. GGCCGGCAUGGUCCCAGCCUCCUCGCUGGCGCCGGCCGGGCAACAUUCCGAGGGGACCGUCCCCUCGGUAAAGGCGAAUGGGACCCA  0.356
36. GGCCGGCAUGGUCCCAGCCUCCUCGCUGGCGCCGGCUGGGCAACAUUCCGAGGGGACCGUCCCCUCGGUAAGGGGGAAUGGGACCCA  0.262
37. GGCCGGCACGGUCCCAGCCUCCUCGCUGGCGCCGGCUGGGCAACAUUCCGAGGGGACCGUCCCCUCGGUAAUGGCGAAUGUGACCCA  0.237
38. GGCCGGCAUGGUCCCAGGCUCCUCGCUGGCGCCGGCUGGGCAACAUUCCGAGGGGACCGUCCCCUCGGUAAUGGCUAAUGGGACCCA  0.227
39. GGCCGGCAUGGUCCCAGCCUCCUCGCUGGCGCCGGCUCGGCAACAUUCCGAGGGGACCGUCGCCUCGGUAAUGGCGAAUGGGACCCA  0.208
40. GGCCGGGAUGGUCCCAGCCUCCUCGCUGGCGCCGGCUGGGCAACAUUCCGAGGGGAGCGUCCCCUCGGUAAUGGCGAAUGGGACCCA  0.208
41. GGCAGGCAUGGUCCCAGCCUCCUCGCUGGCGCCGGCUGGGCAACAUUCCGAGGGGACCGUCCCCUCGGUAAUGGCAAAUGGGACCCA  0.208
42. GGCCGGCAUGGACCCAGCCUCCUCGCUGGCGCCGGCUGGGCAACAUUCCGAGGGCACCGUCCCCUCGGUAAUGGCGAAUGGGACCCA  0.201
43. GGCCGGCAUGGUCCCAGCCUCCUCGCUGGCGCCGGCUGGGCAACAUUCCGAGGGGACCGUCCCCUCGGUAACGGUGAAUGGGACCCA  0.192
44. GGCCGGCAUGGUCCCAGCCCCCUCGCUGGCGCCGGCUGGGCAACAUUCCGAAGGGACCGUCCCCUCGGUAAUGGCGAAUGGGACCCA  0.175
45. GGCCGGCAUGGUCCCAGCCUCCUCGCUCGCGCCGGCUGGGCUACAUUCCGAGGGGACCGUCCCCUCGGUAAUGGCGAAUGGGACCCA  0.166
46. GGCCGGCAUGGUCCUAGCCUCCUCGCUGGCGCGGGCUGGGCAACAUUCCGAGGGGACCGUCCCCUCGGUAAUGGCGAAUGGGACCCA  0.166
47. GGCCGGCAUUGUCCCAGCCUCCUCGCUGGCGCCGGCUGGGCCACAUUCCGAGGGGACCGUCCCCUCGGUAAUGGCGAAUGGGACCCA  0.149
48. GACCGGCAUGGUCCCAGCCUCCUCGCUGGCGCCGGCUGGGCAACAUUCCGAGGGGACCGUUCCCUCGGUAAUGGCGAAUGGGACCCA  0.149
49. GGCCGGCAUGGUCCCAGCCUCCUCGCUGGCGCCGGCUGGGCAACAUUCCGAGGGGACCGUCCCCUCGGUAAUGGCGAAGGAGACCCA  0.146
50. GGCCGGCAUGGUCCCAGCCUCCUCGCUGGCGCCGACUGGGCAACAUUCCGAGGGGACCGUCCCCUCGGUAAUCGCGAAUGGGACCCA  0.138
51. GGCCGGCAUGGUCCGAGCCUCCUCGCUGGCGCCGGCUGGGCAACAUUCCGAGGGGACCGUCCCCUCGGUAAUGGCGCAUGGGACCCA  0.128
52. GGCCGGCAUGGUUCCAGCCUCCUCGCUGGCGCCGGCUGGGCAACAUUCCGAGGGGACCGUCCCCUCGGUAAAGGCGAAUGGGACCCA  0.128
53. GGCCGGCAUGGUCCCAGCCUCCUCGCUGGCGCCGGCUGAGCAACAUUCCGAGGGGACCGUCCCCUCGGUAAUGGCGAAUGGCACCCA  0.128
54. GGCCGGCAUGGUCCCAGCCUUCUCGCUGGCGCCGGCUGGGCAACAUUCCGAGGGGACCGUCCCCUCGGUAAUGGCGCAUGGGACCCA  0.125
55. GGCCGGCAUGAUCCCAGCCUCCUCGCUGGCGCCGGCUGGGCACCAUUCCGAGGGGACCGUCCCCUCGGUAAUGGCGAAUGGGACCCA  0.106
56. GGCCGUCAUGGUCCCAGCCUCCUCGCUUGCGCCGGCUGGGCAACAUUCCGAGGGGACCGUCCCCUCGGUAAUGGCGAAUGGGACCCA  0.104
57. GGCCGGCAUGGUCCCAGUCUCCUCGCUGGCGCCGGCUGGGCAAAAUUCCGAGGGGACCGUCCCCUCGGUAAUGGCGAAUGGGACCCA  0.0978
58. GGCCGGCAUGGUCCCAGCGUCCUCGCUGGCGCCGGCUGGGCAACAUUCCGAGCGGACCGUCCCCUCGGUAAUGGCGAAUGGGACCCA  0.0852
59. GGCCGGCAUGGUCCCAGCUUCCUCGCUGGCGCCGGGUGGGCAACAUUCCGAGGGGACCGUCCCCUCGGUAAUGGCGAAUGGGACCCA  0.0723
60. GGCCGGCAUGGUCCCAGCCUCCUCGCUGGCGCCGGCCGGGCAACAUUCCGAGGGGACCGUCCCCUCGGUAAUGGGGAAUGGGACCCA  0.0627
61. GGCCGGCAUGCUCCCAGCCUCCUCGCUGGCGCGGGCUGGGCAACAUUCCGAGGGGACCGUCCCCUCGGUAAUGGCGAAUGGGACCCA  0.0396
62. GGCCGGCAUGGUCCCAGCAUCCUCCCUGGCGCCGGCUGGGCAACAUUCCGAGGGGACCGUCCCCUCGGUAAUGGCGAAUGGGACCCA  0.0386
63. GGCCGGCAAGGUCCCAGCCUCCUCGCUCGCGCCGGCUGGGCAACAUUCCGAGGGGACCGUCCCCUCGGUAAUGGCGAAUGGGACCCA  0
64. GGCCGGCAUGGUCCCACCGUCCUCGCUGGCGCCGGCUGGGCAACAUUCCGAGGGGACCGUCCCCUCGGUAAUGGCGAAUGGGACCCA  0
